{"source": "paper PMC4626089", "about": "“In Vitro Mutational Analysis of the β2 Adrenergic Receptor, an In Vivo Surrogate Odorant Receptor” (PLoS ONE, 2015)", "assay": "GFP-labeled filopodia count per OP6 cell", "conditions": "glycan lost; control: WT mβ2AR::GFP", "data": [{"substance": "mouse β2-adrenergic-receptor (mβ2AR): No-NxS", "values": [{"measurement": "localisation_or_trafficking, other: GFP-labeled filopodia per cell", "result": "no change, 13.6 ±8.3 vs 31.8 ±16.2"}]}]}
